{"source": "patent US20250295587A1", "about": "“COMPLEX LIPID NANOPARTICLES ENCAPSULATING POLYPEPTIDES AND USES THEREOF” (SAIL BIOMEDICINES, INC., priority 2022, published 2025)", "key": {"[1]": {"assay": "Particle loading / insulin encapsulation efficiency by bicinchoninic acid assay (BCA)", "type": "physicochemical", "settings": "insulin concentration of the dosed preparation", "procedure": "Next, the mixture of re-hydrated particles containing the active biomolecule was purified and separated from the free active biomolecule not loaded in the particles by a dialysis step overnight. The dialysis was performed in a 100 kD dialysis membrane in the buffer used for the formulation process as discussed above, at a buffer volume at least 2000× the volume of the solution to be purified (e.g., 0.1M sodium bicarbonate, pH 8.2, buffer). The dialysate was concentrated in centrifugal unit to the preferred concentration. Alternatively, the purification and separation step could be performed with tangential flow filtration (TFF). The described purification steps are optional and were not performed for all formulations. Particle morphological characteristics were analyzed with dynamic light scattering methods. Particle loading efficiency was quantified with a bicinchoninic acid assay (BCA).\nThe insulin encapsulation efficiency of the complex lipid formulations (the amount of insulin that was trapped to the vesicles) was also characterized, and the results ranged consistently from 25-35%. Similar characterizations were measured for other formulations of complex lipid particles."}, "[2]": {"design": "species or system mice", "settings": "mouse, in vivo", "procedure": "The animals used were C57BL6 female 8-week-old mice (Jax #0664). […] Mice were weighed, and a pre-bleed sample was taken (through tail vein, retro-orbital or submandibular means). The mice were fasted overnight before being dosed via intracolonic administration with 50 uL of a given insulin-loaded complex lipid formulation (Table 8). Non-terminal bleeds at 30 minutes and 60 minutes post-dose were taken, alternating routes of collection. A terminal bleed at 120 minutes post-dose via cardiac puncture was also taken. Whole blood samples from the pre-bleed, 30 minute, 60 minute, and 120 minute bleeds were processed for plasma then stored at −80° C. Insulin levels were quantified by MSD assay. Exposure to the active biomolecule (e.g. insulin) was measured as area under the curve (AUC) of the four measured timepoints, and dose was measured as BCA*dose volume (0.05 mL). Therefore, the data in Table 9 for each mouse is shown as systemic levels of insulin (or exposure normalized by dose). […] Unexpectedly, 20 of 22 (>90%) different complex lipid formulations out-performed free IC insulin."}}, "data": [{"substance": "Control: free insulin given by intracolonic (IC) administration, not encapsulated", "values": [{"measurement": "BCA (Insulin mg/mL)", "setting": "[1]", "result": "Avg = 1.16 mg/mL"}, {"measurement": "Systemic levels of insulin (exposure AUC normalized by dose), Avg", "setting": "[2]", "result": "Avg = 290.1"}]}]}
